Test results: patent publication US20080166749A1, “Fluorescent Protein Sensors of Post-Translational Modifications” (INVITROGEN CORPORATION, priority 1998, published 2008)

Tested on: activated recombinant MAP kinase
Test: Phosphorylation of GFP Erk sensors by MAP kinase, ^32P incorporation
Format: biochemical
Details: 10 μM substrate, 100 ng MAP kinase, 30 minutes at 30° C.; mean ± standard deviation of triplicates
Source text: Experiments were terminated and samples processed as described previously in subsection D.4. Results presented in Table X represent means of triplicate determinations ±standard deviations of ^32P-incorporation in washed pellets as described earlier.

^32P-Incorporation (CPM): 33361 ± 477 CPM
B1: Myelin Basic Protein: a well-characterized substrate of Erk kinase (protein, UniProt P02687 1-169, looked up)
Myelin basic protein: AAQKRPSQRSKYLASASTMDHARHGFLPRHRDTGILDSLGRFFGSDRGAPKRGSGKDGHHAARTTHYGSLPQKAQGHRPQDENPVVHFFKNIVTPRTPPPSQGKGRGLSLSRFSWGAEGQKPGFGYGGRASDYKSAHKGLKGHDAQGTLSKIFKLGGRDSRSGSPMARR
